{"source": "paper PMC8465902", "origin": "cited, not measured here", "key": {"[1]": {"target": "ISCU (Homo sapiens) (UniProt Q9H1K1)", "sequence (Q9H1K1 35-167)": "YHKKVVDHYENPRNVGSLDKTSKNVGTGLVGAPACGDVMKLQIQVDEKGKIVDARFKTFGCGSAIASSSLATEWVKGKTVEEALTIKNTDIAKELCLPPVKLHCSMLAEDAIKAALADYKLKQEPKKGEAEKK"}, "[2]": {"target": "IscU (Escherichia coli) (UniProt P0ACD4)", "sequence (P0ACD4 whole entry)": "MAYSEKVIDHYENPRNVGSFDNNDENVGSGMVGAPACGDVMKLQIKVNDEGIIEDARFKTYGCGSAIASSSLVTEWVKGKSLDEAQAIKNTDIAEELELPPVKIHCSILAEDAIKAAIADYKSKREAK"}}}
{"substance": "NFU1 CTD (from UniProt Q9UMS0)", "values": [{"measurement": "Kd", "setting": "[1]", "value": 1100, "unit": "nM"}]}
{"substance": "IscS (from UniProt P0A6B7)", "values": [{"measurement": "Kd", "setting": "[2]", "value": 2000, "unit": "nM"}]}
